Legend:
[1] = molecular target: the molecule itself; assay: crystal structure; LpxA soaked with compound 1 (2.10 Å) or compound 2 (2.00 Å); P212121, six monomers per asymmetric unit; 12% PEG 1000, 0.2 M calcium acetate, 0.1 M imidazole pH 7.0
[2] = molecular target: the molecule itself; assay: SEC; HiLoad 16/60 Superdex 75; 20 mM Tris pH 8.6, 250 mM NaCl, 1 mM EDTA
[3] = molecular target: the molecule itself; assay: SEC; HiLoad 16/60 Superdex 75; 20 mM Tris-HCl pH 8.6, 250 mM NaCl

B1: P. aeruginosa LpxA (enzyme, Pseudomonas aeruginosa)
chain: MSLIDPRAIIDPSARLAADVQVGPWSIVGAEVEIGEGTVIGPHVVLKGPTKIGKHNRIYQFSSVGEDTPDLKYKGEPTRLVIGDHNVIREGVTIHRGTVQDRAETTIGDHNLIMAYAHIGHDSVIGNHCILVNNTALAGHVHVDDWAILSGYTLVHQYCRIGAHSFSGMGSAIGKDVPAYVTVFGNPAEARSMNFEGMRRRGFSSEAIHALRRAYKVVYRQGHTVEEALAELAESAAQFPEVAVFRDSIQSATRGITR
notes: LpxA, Pseudomonas aeruginosa; Two of the deposited entries 6UEC, 6UED, 6UEE, 6UEG hold this protein
binding result [1]: binds

B2: biotinylated avidity (Avi) tagged LpxA (enzyme, Pseudomonas aeruginosa, UniProt Q9X6P4 1-258, looked up)
chain: MSLIDPRAIIDPSARLAADVQVGPWSIVGAEVEIGEGTVIGPHVVLKGPTKIGKHNRIYQFSSVGEDTPDLKYKGEPTRLVIGDHNVIREGVTIHRGTVQDRAETTIGDHNLIMAYAHIGHDSVIGNHCILVNNTALAGHVHVDDWAILSGYTLVHQYCRIGAHSFSGMGSAIGKDVPAYVTVFGNPAEARSMNFEGMRRRGFSSEAIHALRRAYKVVYRQGHTVEEALAELAESAAQFPEVAVFRDSIQSATRGITR
modifications: biotin (on the Avi tag)
notes: LpxA, Pseudomonas aeruginosa; gene inserted into the BamHI and HindIII sites of the pAvibir plasmid; printed mass of Avi-LpxA 31.6 kDa; also called Avi-LpxA; source: E. coli Rosetta DE3 pLysS, purified (HisTrap, Superdex 75)
stoichiometry N [2]: 3

B3: biotinylated avidity (Avi) tagged LpxD (enzyme, Pseudomonas aeruginosa, UniProt Q9HXY6 1-353, looked up)
chain: MMSTLSYTLGQLAAHVGAEVRGDADLPIQGLATLQEAGPAQLSFLANPQYRKYLPESRAGAVLLTAADADGFAGTALVVANPYLAYASLSHLFDRKPKAAAGIHPTAIVAADAEVDPSASVGAYAVIESGARIGAGVSIGAHCVIGARSVIGEGGWLAPRVTLYHDVTIGARVSIQSGAVIGGEGFGFANEKGVWQKIAQIGGVTIGDDVEIGANTTIDRGALSDTLIGNGVKLDNQIMIAHNVQIGDHTAMAACVGISGSAKIGRHCMLAGGVGLVGHIEICDNVFVTGMTMVTRSITEPGSYSSGTAMQPAAEWKKSAARIRQLDDMARRLQQLEKRLAAVTSSGDASSDA
modifications: biotin (on the Avi tag)
notes: LpxD, Pseudomonas aeruginosa; gene inserted into the BamHI and HindIII sites of the pAvibir plasmid; printed mass of Avi-LpxD 39.8 kDa; also called Avi-LpxD; source: E. coli Rosetta DE3 pLysS, purified (HisTrap, Superdex 75)
stoichiometry N [2]: 3

B4: N-terminal His-tagged P. aeruginosa LpxD with a 2 amino acid deletion (enzyme, Pseudomonas aeruginosa, UniProt Q9HXY6 3-353, looked up)
chain: STLSYTLGQLAAHVGAEVRGDADLPIQGLATLQEAGPAQLSFLANPQYRKYLPESRAGAVLLTAADADGFAGTALVVANPYLAYASLSHLFDRKPKAAAGIHPTAIVAADAEVDPSASVGAYAVIESGARIGAGVSIGAHCVIGARSVIGEGGWLAPRVTLYHDVTIGARVSIQSGAVIGGEGFGFANEKGVWQKIAQIGGVTIGDDVEIGANTTIDRGALSDTLIGNGVKLDNQIMIAHNVQIGDHTAMAACVGISGSAKIGRHCMLAGGVGLVGHIEICDNVFVTGMTMVTRSITEPGSYSSGTAMQPAAEWKKSAARIRQLDDMARRLQQLEKRLAAVTSSGDASSDA
notes: LpxD, Pseudomonas aeruginosa; they lay immediately after the N-terminal 18-AA hexahistidine tag and protease site (thrombin site replaced by a TEV site); Parent construct is that of the published structure (PDB 3PMO), with the thrombin site replaced by a TEV site; The mutagenesis primer reads ENLYFQG followed by STLSYT; Two of the deposited entries 6UEC, 6UED, 6UEE, 6UEG hold this construct; also …
stoichiometry N [3]: 3
